Laboratory results taken from patent US20140259226.

Tests used:
[1] = target: T1, PYR1^CA3 (H60P, V83F, F159V), 6xHis fusion
T1 chain: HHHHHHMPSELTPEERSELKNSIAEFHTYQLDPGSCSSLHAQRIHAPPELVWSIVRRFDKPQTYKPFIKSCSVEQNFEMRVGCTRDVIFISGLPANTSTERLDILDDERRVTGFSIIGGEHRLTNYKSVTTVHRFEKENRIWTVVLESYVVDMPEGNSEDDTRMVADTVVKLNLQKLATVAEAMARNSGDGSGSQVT

[2] = target: T2, PYR1^CA4 (H60P, V83F, F159V, M158I), 6xHis fusion
T2 chain: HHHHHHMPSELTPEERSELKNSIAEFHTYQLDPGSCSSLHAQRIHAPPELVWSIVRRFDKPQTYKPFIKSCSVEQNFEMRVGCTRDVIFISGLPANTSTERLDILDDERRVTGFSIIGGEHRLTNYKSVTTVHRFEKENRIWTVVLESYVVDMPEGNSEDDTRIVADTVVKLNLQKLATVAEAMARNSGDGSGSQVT

B1: 6xHis-SUMO-ABI1 (protein)
chain: HHHHHHSDSEVNQEAKPEVKPEVKPETHINLKVSDGSSEIFFKIKKTTPLRRLMEAFAKRQGKEMDSLRFLYDGIRIQADQTPEDLDMEDNDIIEAHREQIGGMEEVSPAIAGPFRPFSETQMDFTGIRLGKGYCNNQYSNQDSENGDLMVSLPETSSCSVSGSHGSESRKVLISRINSPNLNMKESAAADIVVVDISAGDEINGSDITSEKKMISRTESRSLFEFKSVPLYGFTSICGRRPEMEDAVSTIPRFLQSSSGSMLDGRFDPQSAAHFFGVYDGHGGSQVANYCRERMHLALAEEIAKEKPMLCDGDTWLEKWKKALFNSFLRVDSEIESVAPETVGSTSVVAVVFPSHIFVANCGDSRAVLCRGKTALPLSVDHKPDREDEAARIEAAGGKVIQWNGARVFGVLAMSRSIGDRYLKPSIIPDPEVTAVKRVKEDDCLILASDGVWDVMTDEEACEMARKRILLWHKKNAVAGDASLLADERRKEGKDPAAMSAAEYLSKLAIQRGSKDNISVVVVDLKPRRKLKSKPLN
For B1, the “PP2C activity, % of control, pNPP hydrolysis, in the absence of ABA” value (“PP2C activity, % of control” for short) [1] was “both the triple and quadruple mutants dramatically increased basal PYR1 activity relative to wild-type PYR1” and the “PP2C activity, % of control” value [2] was “both the triple and quadruple mutants dramatically increased basal PYR1 activity relative to wild-type PYR1”.

B2: 6xHis-SUMO-ABI2 (protein)
chain: HHHHHHSDSEVNQEAKPEVKPEVKPETHINLKVSDGSSEIFFKIKKTTPLRRLMEAFAKRQGKEMDSLRFLYDGIRIQADQTPEDLDMEDNDIIEAHREQIGGMDEVSPAVAVPFRPFTDPHAGLRGYCNGESRVTLPESSCSGDGAMKDSSFEINTRQDSLTSSSSAMAGVDISAGDEINGSDEFDPRSMNQSEKKVLSRTESRSLFEFKCVPLYGVTSICGRRPEMEDSVSTIPRFLQVSSSSLLDGRVTNGFNPHLSAHFFGVYDGHGGSQVANYCRERMHLALTEEIVKEKPEFCDGDTWQEKWKKALFNSFMRVDSEIETVAHAPETVGSTSVVAVVFPTHIFVANCGDSRAVLCRGKTPLALSVDHKPDRDDEAARIEAAGGKVIRWNGARVFGVLAMSRSIGDRYLKPSVIPDPEVTSVRRVKEDDCLILASDGLWDVMTNEEVCDLARKRILLWHKKNAMAGEALLPAEKRGEGKDPAAMSAAEYLSKMALQKGSKDNISVVVVDLKGIRKFKSKSLN
B2 was tested, and the “PP2C activity, % of control” value [1] was “both the triple and quadruple mutants dramatically increased basal PYR1 activity relative to wild-type PYR1” and the “PP2C activity, % of control” value [2] was “both the triple and quadruple mutants dramatically increased basal PYR1 activity relative to wild-type PYR1”.
